B1: GsPutA (Geobacter sulfurreducens PCA) (protein)
chain: MLNSELNTKIVNRGKEFFGSISGEKPSLFNKGAWMGKAMDWSMQNEQFKIQMFRFVDVFPSLTTSKLLTEHIREYFGNEQDMPAFMSTGAKVAGMLGSFGGAVLNKVLTSNIEEMARQFIVGETTKEAVKNLEKLRKDGFAAVVDVLGEATLSEEEAEVYTNTYLELLEALKKEQGSWKGLPGKGGDPGLDWGHAPKVNIAVKPTALFCLANPQDFEGSVVAILDRMRRIFKKVMELNGFLCIDMESYRHKEIILEVFRRLKLEYRDYPHLGIVLQAYLKDNDKDLDDLLAWAKEHKVQISVRLVKGAYWDYETVKAKQNDWEVPVWTIKAESDAAYERQARKILENHQICHFACASHNIRTISAVMEMARELNVPEDRYEFQVLYGMAEPVRKGILKVAGRIRLYAPYGNMVPGMGYLVRRLLENTANESFLRQSFAEDAQIERLLEDPAVTVERERAARAAKPKKERKGLGGLPPFNNEAMVDFTRADHRAAFPKHIAQVRTQLGKTYPLFINGKEVRTNDLIPTVNPNKPSEVLGQICQAGTTEVGDAIAAAKAAFPAWRDTDPRTRAEYLLKAAQAARKRLFELSAWQVLEIGKQWDQAYADVTEAIDFLEYYAREMIRLGQPQRVGHAPGELNHYFYEPKGVAAVIAPWNFPLAISMGMASAAIVTGNCVVFKPSGITSIIGWHLVELFREAGLPEGVFNFTPGRGSVMGDYLVDHPDISLIAFTGSMETGLRIIERAAKVHPGQANVKKIISEMGGKNAIIIDDDADLDEAVPHVLYSAFGFQGQKCSACSRVIVLDAVYDKFIERLVSMAKATKVGPSEDPANYMGAVADDKAMKSIKEYAEIGKREGHVLYESPVPAGEGYFVPMTIIGGIKPEHRIAQEEIFGPVLAVMRAKDFDQAIEWANSTQFALTGGIFSRSPEHLAKARREFRVGNLYINRNNTGALVERQPFGGARMSGVGTKAGGPDYLLHFMDPRVVTENTMRRGFAPIEEDDDWVD
B2: GsPutA (Geobacter sulfurreducens PCA; A206W) (protein)
chain: MLNSELNTKIVNRGKEFFGSISGEKPSLFNKGAWMGKAMDWSMQNEQFKIQMFRFVDVFPSLTTSKLLTEHIREYFGNEQDMPAFMSTGAKVAGMLGSFGGAVLNKVLTSNIEEMARQFIVGETTKEAVKNLEKLRKDGFAAVVDVLGEATLSEEEAEVYTNTYLELLEALKKEQGSWKGLPGKGGDPGLDWGHAPKVNIAVKPTWLFCLANPQDFEGSVVAILDRMRRIFKKVMELNGFLCIDMESYRHKEIILEVFRRLKLEYRDYPHLGIVLQAYLKDNDKDLDDLLAWAKEHKVQISVRLVKGAYWDYETVKAKQNDWEVPVWTIKAESDAAYERQARKILENHQICHFACASHNIRTISAVMEMARELNVPEDRYEFQVLYGMAEPVRKGILKVAGRIRLYAPYGNMVPGMGYLVRRLLENTANESFLRQSFAEDAQIERLLEDPAVTVERERAARAAKPKKERKGLGGLPPFNNEAMVDFTRADHRAAFPKHIAQVRTQLGKTYPLFINGKEVRTNDLIPTVNPNKPSEVLGQICQAGTTEVGDAIAAAKAAFPAWRDTDPRTRAEYLLKAAQAARKRLFELSAWQVLEIGKQWDQAYADVTEAIDFLEYYAREMIRLGQPQRVGHAPGELNHYFYEPKGVAAVIAPWNFPLAISMGMASAAIVTGNCVVFKPSGITSIIGWHLVELFREAGLPEGVFNFTPGRGSVMGDYLVDHPDISLIAFTGSMETGLRIIERAAKVHPGQANVKKIISEMGGKNAIIIDDDADLDEAVPHVLYSAFGFQGQKCSACSRVIVLDAVYDKFIERLVSMAKATKVGPSEDPANYMGAVADDKAMKSIKEYAEIGKREGHVLYESPVPAGEGYFVPMTIIGGIKPEHRIAQEEIFGPVLAVMRAKDFDQAIEWANSTQFALTGGIFSRSPEHLAKARREFRVGNLYINRNNTGALVERQPFGGARMSGVGTKAGGPDYLLHFMDPRVVTENTMRRGFAPIEEDDDWVD

Substrate: O=C(O)[C@@H]1CCC=N1
Experiment: purified protein
Format: biochemical, Geobacter sulfurreducens
Details: GSALDH site; NAD+ fixed at saturating concentration; L-P5C 0-3.5 mM

Row | Protein | Km | kcat
1 | B1 | 30.0 ± 13.0 µM | 4.7 ± 0.2 s⁻¹
2 | B2 | 65.0 ± 18.3 µM | 6.0 ± 0.2 s⁻¹
